Source: patent US20260077041A1

Columns and labels:
[1] = target: IL-17A (human) (UniProt Q16552); experiment: SPR (Biacore T200), drug captured on protein A chip, IL-17A as analyte, multi-cycle
[2] = target: TNFα (human) (UniProt P01375); experiment: SPR (Biacore T200), drug captured on protein A chip, TNFα as analyte, multi-cycle
Chain of TNFα (human) (P01375 77-233 limits assumed): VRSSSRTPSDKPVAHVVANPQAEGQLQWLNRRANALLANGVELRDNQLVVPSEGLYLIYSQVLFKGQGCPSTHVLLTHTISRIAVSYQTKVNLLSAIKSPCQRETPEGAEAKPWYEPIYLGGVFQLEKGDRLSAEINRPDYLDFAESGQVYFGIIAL

Chain of IL-17A (human) (Q16552 24-155 limits assumed): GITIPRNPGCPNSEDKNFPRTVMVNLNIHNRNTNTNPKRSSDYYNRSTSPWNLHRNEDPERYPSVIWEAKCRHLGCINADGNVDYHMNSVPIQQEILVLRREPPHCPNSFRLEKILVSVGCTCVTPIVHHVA

Row | Kd [1] | koff [1] | kon [1] | Kd [2] | koff [2] | kon [2] | Substance
1 | 78.7 pM | 6.12e-05 s⁻¹ | 778000 M⁻¹ s⁻¹ | – | – | – | Cosentyx (antibody)
2 | – | – | – | 160 pM | 0.00015 s⁻¹ | 941000 M⁻¹ s⁻¹ | Humira (antibody)
